Data published in PMC8873925.

Experiments:
Assay in all cases: ITC
CSTF2 RRM E26A = target: T1, CSTF2 RRM E26A (Homo sapiens, UniProt P33240 1-107, E26A)
T1 sequence: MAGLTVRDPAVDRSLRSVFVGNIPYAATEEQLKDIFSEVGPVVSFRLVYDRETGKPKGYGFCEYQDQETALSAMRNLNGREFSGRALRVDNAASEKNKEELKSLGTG

CSTF2 RRM A93E = target: T2, CSTF2 RRM A93E (Homo sapiens, UniProt P33240 1-107, A93E)
T2 sequence: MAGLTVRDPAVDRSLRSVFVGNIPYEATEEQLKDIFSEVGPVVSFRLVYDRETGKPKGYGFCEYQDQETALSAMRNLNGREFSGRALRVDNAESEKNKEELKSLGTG

CSTF2 RRM D90K = target: T3, CSTF2 RRM D90K (Homo sapiens, UniProt P33240 1-107, D90K)
T3 sequence: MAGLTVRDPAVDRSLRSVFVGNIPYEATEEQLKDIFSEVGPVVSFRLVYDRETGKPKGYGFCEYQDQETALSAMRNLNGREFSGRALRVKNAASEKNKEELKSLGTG

CSTF2 RRM K96E = target: T4, CSTF2 RRM K96E (Homo sapiens, UniProt P33240 1-107, K96E)
T4 sequence: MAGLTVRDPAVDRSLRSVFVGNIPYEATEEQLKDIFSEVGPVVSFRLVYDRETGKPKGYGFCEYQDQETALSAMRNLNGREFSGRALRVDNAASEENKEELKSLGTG

CSTF2 RRM F45A = target: T5, CSTF2 RRM F45A (Homo sapiens, UniProt P33240 1-107, F45A)
T5 sequence: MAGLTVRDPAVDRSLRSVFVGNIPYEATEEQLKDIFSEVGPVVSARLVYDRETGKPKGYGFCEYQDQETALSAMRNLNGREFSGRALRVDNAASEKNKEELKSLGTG

[1] = target: T6, CSTF2 (CstF-64) RRM wild-type (Homo sapiens, UniProt P33240 1-107)
T6 sequence: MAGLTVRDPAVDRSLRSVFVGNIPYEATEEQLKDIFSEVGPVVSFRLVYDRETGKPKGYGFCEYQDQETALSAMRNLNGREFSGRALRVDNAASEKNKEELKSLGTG

CSTF2 RRM K98E = target: T7, CSTF2 RRM K98E (Homo sapiens, UniProt P33240 1-107, K98E)
T7 sequence: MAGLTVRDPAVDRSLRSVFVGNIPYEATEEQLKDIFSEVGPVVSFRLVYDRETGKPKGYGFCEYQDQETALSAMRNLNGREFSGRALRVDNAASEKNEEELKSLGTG

CSTF2 RRM D50A = target: T8, CSTF2 RRM D50A (Homo sapiens, UniProt P33240 1-107, D50A)
T8 sequence: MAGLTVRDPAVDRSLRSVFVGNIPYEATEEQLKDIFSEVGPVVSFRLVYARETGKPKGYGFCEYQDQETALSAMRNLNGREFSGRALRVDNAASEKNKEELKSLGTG

CSTF2 RRM D90I = target: T9, CSTF2 RRM D90I (Homo sapiens, UniProt P33240 1-107, D90I)
T9 sequence: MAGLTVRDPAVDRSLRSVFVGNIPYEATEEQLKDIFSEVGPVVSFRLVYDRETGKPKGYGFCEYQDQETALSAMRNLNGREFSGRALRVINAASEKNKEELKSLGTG

B1: SVL RNA (ssRNA)
RNA: AUUUUAUGUUUCAGGU
CSTF2 RRM E26A
  Kd: 0.52 ± 0.01 µM
CSTF2 RRM A93E
  Kd: 3.88 ± 0.77 µM
CSTF2 RRM D90K
  Kd: 0.608 ± 0.01 µM
CSTF2 RRM K96E
  Kd: 38.7 ± 4.2 µM
CSTF2 RRM F45A
  Kd: 1.01 ± 0.05 µM
[1]
  Kd: 1.52 ± 0.17 µM
CSTF2 RRM K98E
  Kd: 8.7 ± 0.11 µM
CSTF2 RRM D50A
  Kd: 0.698 ± 0.06 µM
CSTF2 RRM D90I
  Kd: 1.26 ± 0.33 µM
